The values below come from publication PMC8200818, “SPECT/CT Imaging, Biodistribution and Radiation Dosimetry of a ^177Lu-DOTA-Integrin αvβ6 Cystine Knot Peptide in a Pancreatic Cancer Xenograft Model” (Frontiers in Oncology, 2021).

The nature of data set [1]: Dosimetric calculation for human adult male (OLINDA/EXM 1.1). The source says:
Assuming that the organ-to-whole-body activity concentration ratio in mice would equal that in humans, the injected activity concentration (%IA/g) acquired from the mouse biodistribution study was transformed to human whole-organ percentage of injected activity per gram of tissue (%IA/g) human. The mouse uptake data were extrapolated to humans by relative scaling of mass and time using the following two equations,
(1) (%IA/organ)human=[(%IA/g)mouse×Mmouse(kg)×[m(g)/M(kg)]human
(2) thuman=tanimal[Mhuman/Manimal]^0.25
where %IA/g is percentage of injected activity per gram of tissue, %IA/organ is percentage of injected activity per organ; m is organ mass of mouse or human, M is body mass of mouse or human; t is time. The absorbed doses per activity were calculated by using the extrapolated human source organ residence times as input in the OLINDA/EXM 1.1 software (Organ Level Internal Dose Assessment Code, Vanderbilt University, Nashville, USA), with the reference adult male ([25]).

Data set [2] has as its target T1, integrin αvβ6 (BxPC-3 cells) (Homo sapiens, UniProt P06756+P18564).
T1 construct: endogenous in cells; host or cells: BxPC-3 (whole adherent cells)
As to the kind of experiment: Competition binding assay, BxPC-3. The method, then:
The reaction volume was made up to 30 µl with water. The reaction was carried out for 10 minutes at 80°C.
For competitive radioligand binding assay, approximately 50,000 cells (BxPC-3 or Capan-2) per well were seeded in a 96 well plate incubated overnight at 37°C. […] After 2 hours of incubation, cells were washed for 2-3 times with ice-cold washing buffer (50 mM Tris-HCl, pH 7.4, 125 mM NaCl, 0.05% BSA) and lysed with 1 N NaOH (80 µl/well). The lysed cells were transferred to vials and measured in a gamma counter (Wallac 1470 Wizard, Perkin Elmer, Waltham, MA, USA). Obtained cpm values were plotted with GraphPad Prism and the data fitted using nonlinear regression (one site - fit Ki, one site - fit logIC50).
All statistical analyses were performed using GraphPad Prism 5.04. IC50 values were determined by nonlinear sigmoidal curve fitting with variable slope setting. All presented data are based on independent experiments. Numerical data for this study have been deposited in an open data repository for public access: http://doi.org/10.5281/zenodo.4362503.

Where [3] appears, read: adult male human, extrapolated from mouse biodistribution.

Entries after “also recorded” stand apart in the source; their conditions may differ.

T1 sequence (P06756 31-889 limits assumed): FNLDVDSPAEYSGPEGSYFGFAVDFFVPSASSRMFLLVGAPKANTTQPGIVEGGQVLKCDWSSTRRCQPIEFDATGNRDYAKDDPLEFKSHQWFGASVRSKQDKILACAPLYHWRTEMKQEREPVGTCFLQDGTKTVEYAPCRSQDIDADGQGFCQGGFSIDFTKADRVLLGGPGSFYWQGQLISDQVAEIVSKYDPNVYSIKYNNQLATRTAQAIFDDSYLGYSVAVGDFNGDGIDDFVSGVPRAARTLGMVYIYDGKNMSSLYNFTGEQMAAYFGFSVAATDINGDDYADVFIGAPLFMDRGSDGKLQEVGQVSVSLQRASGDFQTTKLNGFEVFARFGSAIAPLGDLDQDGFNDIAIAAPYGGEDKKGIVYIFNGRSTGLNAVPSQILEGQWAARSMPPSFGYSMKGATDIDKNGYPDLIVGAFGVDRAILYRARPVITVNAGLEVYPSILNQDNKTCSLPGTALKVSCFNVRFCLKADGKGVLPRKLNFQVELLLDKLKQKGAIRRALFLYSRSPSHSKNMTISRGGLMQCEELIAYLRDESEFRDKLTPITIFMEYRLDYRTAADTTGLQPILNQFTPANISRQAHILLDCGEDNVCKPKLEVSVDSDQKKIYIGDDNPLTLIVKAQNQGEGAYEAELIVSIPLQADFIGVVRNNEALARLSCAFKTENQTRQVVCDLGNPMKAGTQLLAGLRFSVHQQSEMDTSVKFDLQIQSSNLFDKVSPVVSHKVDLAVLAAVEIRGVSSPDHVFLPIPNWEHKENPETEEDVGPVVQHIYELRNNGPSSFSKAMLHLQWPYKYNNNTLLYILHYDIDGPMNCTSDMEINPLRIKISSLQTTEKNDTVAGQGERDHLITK
T1 sequence (P06756 891-1048 partner limits assumed): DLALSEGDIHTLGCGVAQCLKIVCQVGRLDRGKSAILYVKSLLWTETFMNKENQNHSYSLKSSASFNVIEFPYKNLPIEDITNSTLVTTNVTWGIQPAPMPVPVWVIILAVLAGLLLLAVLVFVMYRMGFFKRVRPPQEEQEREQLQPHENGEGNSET
T1 sequence (P18564 22-788): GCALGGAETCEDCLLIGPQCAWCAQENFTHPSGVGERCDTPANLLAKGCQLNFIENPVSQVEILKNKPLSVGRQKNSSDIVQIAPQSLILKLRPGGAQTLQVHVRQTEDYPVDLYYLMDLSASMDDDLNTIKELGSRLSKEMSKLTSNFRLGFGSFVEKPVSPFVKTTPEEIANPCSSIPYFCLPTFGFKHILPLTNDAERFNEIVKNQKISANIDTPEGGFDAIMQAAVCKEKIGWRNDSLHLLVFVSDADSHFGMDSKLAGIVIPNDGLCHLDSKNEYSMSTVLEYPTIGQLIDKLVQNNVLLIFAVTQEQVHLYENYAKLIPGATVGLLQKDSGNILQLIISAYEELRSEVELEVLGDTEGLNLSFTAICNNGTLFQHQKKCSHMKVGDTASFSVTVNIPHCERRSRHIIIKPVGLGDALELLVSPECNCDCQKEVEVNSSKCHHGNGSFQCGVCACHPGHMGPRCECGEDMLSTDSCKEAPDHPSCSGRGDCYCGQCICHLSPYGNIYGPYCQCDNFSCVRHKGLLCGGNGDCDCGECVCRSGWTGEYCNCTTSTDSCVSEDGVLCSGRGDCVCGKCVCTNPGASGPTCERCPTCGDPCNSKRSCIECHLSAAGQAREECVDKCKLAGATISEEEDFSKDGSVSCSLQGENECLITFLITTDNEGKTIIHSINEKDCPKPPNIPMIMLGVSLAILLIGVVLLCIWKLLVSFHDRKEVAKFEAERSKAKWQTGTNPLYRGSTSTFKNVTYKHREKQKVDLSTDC

For `CC[C@H](C)[C@@H]1NC(=O)[C@@H](NC(=O)CNC(=O)CN2CCN(CC(=O)O)CCN(CC(=O)O)CCN(CC(=O)O)CC2)CSSC[C@@H]2NC(=O)[C@H](C)NC(=O)CNC(=O)[C@@H]3CCCN3C(=O)[C@@H]3CSSC[C@@H](C(=O)NCC(=O)O)NC(=O)[C@H](Cc4ccc(O)cc4)NC(=O)CNC(=O)[C@H](CC(N)=O)NC(=O)CNC(=O)[C@H](CCCNC(=N)N)NC(=O)[C@H](CSSC[C@H](NC(=O)[C@H](CCCNC(=N)N)NC(=O)[C@H](Cc4ccccc4)NC(=O)[C@H](CC(C)C)NC(=O)[C@H](CC(C)C)NC(=O)[C@H]([C@@H](C)O)NC(=O)CNC(=O)[C@H](CC(C)C)NC(=O)[C@H](CC(=O)O)NC(=O)[C@H]([C@@H](C)O)NC(=O)[C@H](CCCNC(=N)N)NC(=O)CNC(=O)[C@H](CC(N)=O)NC(=O)[C@H](CC(C)C)NC1=O)C(=O)N[C@@H](CCCNC(=N)N)C(=O)N[C@@H](CCCNC(=N)N)C(=O)N[C@@H](CC(=O)O)C(=O)N[C@@H](CO)C(=O)N[C@@H](CC(=O)O)C(=O)N3)NC(=O)[C@H]([C@@H](C)CC)NC2=O` [^177Lu-DOTA-integrin αvβ6 knottin, metal not drawn], in data set [1] (setting [3]), the “Expected absorbed dose, Liver” value is reported as 9.34E-04 mSv/MBq and the “Expected absorbed dose, Thymus” value is listed as 5.08E-06 rem/mCi. Moreover, the Dose-limiting organ entry in data set [1] (human projection, preliminary) is given as “The absorbed doses in the kidney propose it as the dose-limiting organ”. Also, the “Binding affinity of the ^177Lu tracer” value in data set [2] is “low single-digit nanomolar range; also recorded: high affinity and specific binding to target-positive cells and tumors”.
